Reference: article PMC10397247

Experiments:
O3 [1] = target: T1, O3; assay: two-hybrid library CCNG1;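 also: natural log of median RNA to DNA barcode read ratio; higher means stronger binding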
T1 chain: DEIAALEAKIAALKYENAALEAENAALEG

O7 [2] = target: T2, O7; assay: two-hybrid library CCNG1;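 also: natural log of median RNA to DNA barcode read ratio; higher means stronger binding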
T2 chain: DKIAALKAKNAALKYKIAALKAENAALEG

O5 [3] = target: T3, O5; assay: two-hybrid library CCNG1;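 also: natural log of median RNA to DNA barcode read ratio; higher means stronger binding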
T3 chain: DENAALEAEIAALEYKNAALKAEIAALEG

O15 [4] = target: T4, O15; assay: two-hybrid library CCNG1;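 also: natural log of median RNA to DNA barcode read ratio; higher means stronger binding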
T4 chain: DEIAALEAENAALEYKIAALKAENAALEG

O14 [5] = target: T5, O14; assay: two-hybrid library CCNG1;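 also: natural log of median RNA to DNA barcode read ratio; higher means stronger binding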
T5 chain: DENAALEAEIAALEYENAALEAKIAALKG

O8 [6] = target: T6, O8; assay: two-hybrid library CCNG1;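 also: natural log of median RNA to DNA barcode read ratio; higher means stronger binding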
T6 chain: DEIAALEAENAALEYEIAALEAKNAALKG

O4 [7] = target: T7, O4; assay: two-hybrid library CCNG1
T7 chain: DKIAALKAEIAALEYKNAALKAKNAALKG

O6 [8] = target: T8, O6; assay: two-hybrid library CCNG1
T8 chain: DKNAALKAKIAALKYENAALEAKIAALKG

O2 [9] = target: T9, O2; assay: two-hybrid library CCNG1
T9 chain: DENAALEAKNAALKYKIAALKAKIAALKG

O16 [10] = target: T10, O16; assay: two-hybrid library CCNG1
T10 chain: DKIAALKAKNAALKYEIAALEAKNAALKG

O9 [11] = target: T11, O9; assay: two-hybrid library CCNG1
T11 chain: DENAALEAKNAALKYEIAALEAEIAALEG

4H3632-bN = target: T12, 4H3632-bN; assay: two-hybrid library CCNG1
T12 chain: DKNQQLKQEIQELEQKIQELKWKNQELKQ

4H496-bN = target: T13, 4H496-bN; assay: two-hybrid library CCNG1
T13 chain: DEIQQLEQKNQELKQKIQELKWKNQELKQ

P1mSN = target: T14, P1mSN; assay: two-hybrid library CCNG1
T14 chain: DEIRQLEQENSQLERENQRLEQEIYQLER

P8SH = target: T15, P8SH; assay: two-hybrid library CCNG1
T15 chain: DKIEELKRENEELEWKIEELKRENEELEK

P7mS = target: T16, P7mS; assay: two-hybrid library CCNG1
T16 chain: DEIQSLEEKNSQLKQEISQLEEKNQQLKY

P9mS = target: T17, P9mS; assay: two-hybrid library CCNG1
T17 chain: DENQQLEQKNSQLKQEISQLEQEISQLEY

P5mS = target: T18, P5mS; assay: two-hybrid library CCNG1
T18 chain: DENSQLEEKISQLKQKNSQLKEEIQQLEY

P8mS = target: T19, P8mS; assay: two-hybrid library CCNG1
T19 chain: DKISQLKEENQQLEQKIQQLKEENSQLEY

P6mS = target: T20, P6mS; assay: two-hybrid library CCNG1
T20 chain: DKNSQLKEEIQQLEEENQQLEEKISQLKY

O15 [12] = target: T21, O15; assay: two-hybrid library CC0; details: mean of both orientations
T21 chain: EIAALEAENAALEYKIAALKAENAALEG

O9 [13] = target: T22, O9; assay: two-hybrid library CC0; details: mean of both orientations
T22 chain: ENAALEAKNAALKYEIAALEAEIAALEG

O2 [14] = target: T23, O2; assay: two-hybrid library CC0; details: mean of both orientations
T23 chain: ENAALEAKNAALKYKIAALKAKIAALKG

O8 [15] = target: T24, O8; assay: two-hybrid library CC0; details: mean of both orientations
T24 chain: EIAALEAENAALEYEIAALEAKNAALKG

O5 [16] = target: T25, O5; assay: two-hybrid library CC0; details: mean of both orientations
T25 chain: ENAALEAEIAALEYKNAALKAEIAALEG

O6 [17] = target: T26, O6; assay: two-hybrid library CC0; details: mean of both orientations
T26 chain: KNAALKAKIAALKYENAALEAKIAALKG

O7 [18] = target: T27, O7; assay: two-hybrid library CC0; details: mean of both orientations
T27 chain: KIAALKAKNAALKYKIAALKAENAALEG

O3 [19] = target: T28, O3; assay: two-hybrid library CC0; details: mean of both orientations
T28 chain: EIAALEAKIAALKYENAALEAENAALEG

O14 [20] = target: T29, O14; assay: two-hybrid library CC0; details: mean of both orientations
T29 chain: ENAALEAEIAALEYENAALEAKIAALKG

O4 [21] = target: T30, O4; assay: two-hybrid library CC0; details: mean of both orientations
T30 chain: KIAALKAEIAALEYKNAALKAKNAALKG

O16 [22] = target: T31, O16; assay: two-hybrid library CC0; details: mean of both orientations
T31 chain: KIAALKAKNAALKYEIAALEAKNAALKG

4H48-bA = target: T32, 4H48-bA; assay: two-hybrid library CCNG1
T32 chain: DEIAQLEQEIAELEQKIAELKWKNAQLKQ

4H491-bA = target: T33, 4H491-bA; assay: two-hybrid library CCNG1
T33 chain: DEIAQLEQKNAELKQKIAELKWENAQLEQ

4H2944-bA = target: T34, 4H2944-bA; assay: two-hybrid library CCNG1
T34 chain: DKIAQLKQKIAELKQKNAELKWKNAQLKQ

4H342-bA = target: T35, 4H342-bA; assay: two-hybrid library CCNG1
T35 chain: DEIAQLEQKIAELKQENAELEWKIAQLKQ

P7A = target: T36, P7A; assay: two-hybrid library CCNG1
T36 chain: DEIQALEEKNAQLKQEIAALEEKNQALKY

P6A = target: T37, P6A; assay: two-hybrid library CCNG1
T37 chain: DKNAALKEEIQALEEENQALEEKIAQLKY

P8A = target: T38, P8A; assay: two-hybrid library CCNG1
T38 chain: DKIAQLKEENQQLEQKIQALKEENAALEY

P3A = target: T39, P3A; assay: two-hybrid library CCNG1
T39 chain: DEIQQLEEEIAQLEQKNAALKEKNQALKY

P4A = target: T40, P4A; assay: two-hybrid library CCNG1
T40 chain: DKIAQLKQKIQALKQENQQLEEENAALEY

P5A = target: T41, P5A; assay: two-hybrid library CCNG1
T41 chain: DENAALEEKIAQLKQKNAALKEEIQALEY

P9A = target: T42, P9A; assay: two-hybrid library CCNG1
T42 chain: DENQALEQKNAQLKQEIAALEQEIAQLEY

4H2931-bH = target: T43, 4H2931-bH; assay: two-hybrid library CCNG1
T43 chain: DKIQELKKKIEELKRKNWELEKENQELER

4H349-bH = target: T44, 4H349-bH; assay: two-hybrid library CCNG1
T44 chain: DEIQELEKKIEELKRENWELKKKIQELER

4H2585-bH = target: T45, 4H2585-bH; assay: two-hybrid library CCNG1
T45 chain: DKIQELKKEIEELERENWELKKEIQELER

4H932-bH = target: T46, 4H932-bH; assay: two-hybrid library CCNG1
T46 chain: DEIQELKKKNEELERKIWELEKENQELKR

4H730-bH = target: T47, 4H730-bH; assay: two-hybrid library CCNG1
T47 chain: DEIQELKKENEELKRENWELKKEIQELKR

4H2518-bH = target: T48, 4H2518-bH; assay: two-hybrid library CCNG1
T48 chain: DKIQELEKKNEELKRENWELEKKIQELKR

4H2760-bH = target: T49, 4H2760-bH; assay: two-hybrid library CCNG1
T49 chain: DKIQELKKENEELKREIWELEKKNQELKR

4H3364-bH = target: T50, 4H3364-bH; assay: two-hybrid library CCNG1
T50 chain: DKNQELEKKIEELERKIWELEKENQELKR

4H56-bH = target: T51, 4H56-bH; assay: two-hybrid library CCNG1
T51 chain: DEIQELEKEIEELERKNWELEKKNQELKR

4H264-bH = target: T52, 4H264-bH; assay: two-hybrid library CCNG1
T52 chain: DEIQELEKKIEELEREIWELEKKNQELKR

4H796-bH = target: T53, 4H796-bH; assay: two-hybrid library CCNG1
T53 chain: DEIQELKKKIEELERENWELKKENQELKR

4H949-bH = target: T54, 4H949-bH; assay: two-hybrid library CCNG1
T54 chain: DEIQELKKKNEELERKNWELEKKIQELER

4H3297-bH = target: T55, 4H3297-bH; assay: two-hybrid library CCNG1
T55 chain: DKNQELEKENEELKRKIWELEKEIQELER

4H235-bH = target: T56, 4H235-bH; assay: two-hybrid library CCNG1
T56 chain: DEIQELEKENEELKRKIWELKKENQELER

4H2859-bH = target: T57, 4H2859-bH; assay: two-hybrid library CCNG1
T57 chain: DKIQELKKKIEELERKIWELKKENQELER

4H2444-bH = target: T58, 4H2444-bH; assay: two-hybrid library CCNG1
T58 chain: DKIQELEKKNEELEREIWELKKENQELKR

4H3041-bH = target: T59, 4H3041-bH; assay: two-hybrid library CCNG1
T59 chain: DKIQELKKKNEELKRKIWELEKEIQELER

4H3381-bH = target: T60, 4H3381-bH; assay: two-hybrid library CCNG1
T60 chain: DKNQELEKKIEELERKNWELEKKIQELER

P9A-bH = target: T61, P9A-bH; assay: two-hybrid library CCNG1
T61 chain: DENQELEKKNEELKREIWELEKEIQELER

P4A-bH = target: T62, P4A-bH; assay: two-hybrid library CCNG1
T62 chain: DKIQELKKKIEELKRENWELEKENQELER

P5A-bH = target: T63, P5A-bH; assay: two-hybrid library CCNG1; details: mean of both orientations
T63 chain: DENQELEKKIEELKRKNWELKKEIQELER

P7A-bH = target: T64, P7A-bH; assay: two-hybrid library CCNG1
T64 chain: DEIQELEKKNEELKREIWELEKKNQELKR

P8A-bH = target: T65, P8A-bH; assay: two-hybrid library CCNG1
T65 chain: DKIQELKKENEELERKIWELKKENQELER

P6A-bH = target: T66, P6A-bH; assay: two-hybrid library CCNG1
T66 chain: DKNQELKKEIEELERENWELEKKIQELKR

P3A-bH = target: T67, P3A-bH; assay: two-hybrid library CCNG1
T67 chain: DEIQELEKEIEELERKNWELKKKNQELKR

DENAALEAEIAALEYENAALEAKIAALKG
interaction score (O3 [1]): -1.94 | interaction score (O7 [2]): 0.14 | interaction score (O5 [3]): 0.398 | interaction score (O15 [4]): -1.64 | interaction score (O14 [5]): -2.21 | interaction score (O8 [6]): -2.34 | interaction score (O4 [7]): -1.11 | interaction score (O6 [8]): 0.213 | interaction score (O2 [9]): -1.4 | interaction score (O16 [10]): 0.545 | interaction score (O9 [11]): -2.25

DKNQQLKQEIQELEQKIQELKWKNQELKQ [4H3632-bN]
interaction score (4H3632-bN): 1.05 | interaction score (4H496-bN): -0.174 | interaction score (P1mSN): -0.649

DKIEELKRENEELEWKIEELKRENEELEK [P8SH]
interaction score (P8SH): -0.00526

DENSQLEEKISQLKQKNSQLKEEIQQLEY [P5mS]
interaction score (P7mS): -1.25 | interaction score (P9mS): -2.82 | interaction score (P5mS): -1.66 | interaction score (P8mS): -1.17 | interaction score (P6mS): -0.081

ENAALEAEIAALEYENAALEAKIAALKG
interaction score (O15 [12]): -2.74 | interaction score (O9 [13]): -2.64 | interaction score (O2 [14]): -2.38 | interaction score (O8 [15]): -2.58 | interaction score (O5 [16]): -0.24 | interaction score (O6 [17]): 0.177 | interaction score (O7 [18]): -1.03 | interaction score (O3 [19]): -2.51 | interaction score (O14 [20]): -2.52 | interaction score (O4 [21]): -2.52 | interaction score (O16 [22]): 0.961

DKIAQLKQKIAELKQKNAELKWKNAQLKQ [4H2944-bA]
interaction score (4H48-bA): -1.05 | interaction score (4H491-bA): -0.569 | interaction score (4H2944-bA): -0.797 | interaction score (4H342-bA): 1.77

DEIQQLEEEIAQLEQKNAALKEKNQALKY [P3A]
interaction score (P7A): -0.23 | interaction score (P6A): -0.905 | interaction score (P8A): -0.435 | interaction score (P3A): -0.882 | interaction score (P4A): 2.6 | interaction score (P5A): -0.901 | interaction score (P9A): 0.0927

DEIQELEKENEELKRKIWELKKENQELER [4H235-bH]
interaction score (4H2931-bH): -0.301 | interaction score (4H349-bH): 0.108 | interaction score (4H2585-bH): -1.55 | interaction score (4H932-bH): -0.443 | interaction score (4H730-bH): -0.176 | interaction score (4H2518-bH): -0.135 | interaction score (4H2760-bH): 1.12 | interaction score (4H3364-bH): -0.442 | interaction score (4H56-bH): 0.0558 | interaction score (4H264-bH): -0.718 | interaction score (4H796-bH): -0.693 | interaction score (4H2944-bA): -0.835 | interaction score (4H949-bH): -0.845 | interaction score (4H3297-bH): 0.0762 | interaction score (4H235-bH): 0.982 | interaction score (4H2859-bH): 0.589 | interaction score (4H2444-bH): 0.0109 | interaction score (4H3041-bH): 0.0126 | interaction score (4H3381-bH): 0

DKIQELKKKNEELKRKNWELKKKIQELKR [P2A-bH]
interaction score (P9A-bH): -1.02 | interaction score (P4A-bH): 0.539 | interaction score (P5A-bH): -1.23 | interaction score (P7A-bH): -0.557 | interaction score (P8A-bH): 0.132 | interaction score (P6A-bH): -0.802 | interaction score (P3A-bH): -1.95
